B1: mature form of full-length OmpA (OmpA325), P0A910 22-346 (natural protein)
chain: APKDNTWYTGAKLGWSQYHDTGFINNNGPTHENQLGAGAFGGYQVNPYVGFEMGYDWLGRMPYKGSVENGAYKAQGVQLTAKLGYPITDDLDIYTRLGGMVWRADTKSNVYGKNHDTGVSPVFAGGVEYAITPEIATRLEYQWTNNIGDAHTIGTRPDNGMLSLGVSYRFGQGEAAPVVAPAPAPAPEVQTKHFTLKSDVLFNFNKATLKPEGQAALDQLYSQLSNLDPKDGSVVVLGYTDRIGSDAYNQGLSERRAQSVVDYLISKGIPADKISARGMGESNPVTGNTCDNVKQRAALIDCLAPDRRVEIEVKGIKDVVTQPQA

Experiments:
[1] = target: N-terminal barrel domain of OmpA (OmpA171, residues 1–171) (E. coli K12 MG1655); test: circular dichroism kinetics
[2] = target: T1, mature form of full-length OmpA (OmpA325) (E. coli K12 MG1655), P0A910; test: AUC; settings: remark: other sources report otherwise
T1 chain: B1 chain

| Molecule | critical nucleus size n* (nucleated growth polymerization model) [1] [molecules] | order of the self-association reaction (initial rates) [1] | percent monomer (3 μM OmpA325, 450 mM urea, 30 minutes) [2] [%] |
| --- | --- | --- | --- |
| N-terminal barrel domain of OmpA (OmpA171, residues 1–171) (domain or fragment) | 2.6 | 3.2 |  |
| B1 |  |  | 75 |

Source: paper PMC3169180
